The supplement of paper PMC10724198
± gives the standard deviation of the averaged measurements.

How the values were obtained:
Saccharomyces cerevisiae [1] = assay: protein stability index of tFT-peptide fusion (C-terminal peptide) (PSI (0-1 scale)); higher = more stable (slower turnover)
Experimental: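 MPS profiling in S. cerevisiae of the tFT-X12 degron library: putative degron peptides plus stable controls, 12 aa, fused to the C-terminus of a sfGFP-mCherry timer. Cells are FACS-sorted into 8 mCherry/sfGFP bins and deep-sequenced. PSI runs from 0 (unstable) to 1 (stable). Backgrounds are wild type, das1Δ and doa10Δ at 30 °C, and wild type, das1Δ, cdc34-1 and cdc53-1 at 37 °C; 2-3 technical replicates each.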

Saccharomyces cerevisiae [2] = assay: as above; details: genetic background: wild type; temperature: 30 C
[3] = genetic background: cdc34-1, temperature: 37 C
[4] = genetic background: cdc53-1, temperature: 37 C
[5] = genetic background: das1 deletion, temperature: 30 C
[6] = genetic background: das1 deletion, temperature: 37 C
[7] = genetic background: doa10 deletion, temperature: 30 C
[8] = genetic background: wild type, temperature: 30 C
[9] = genetic background: wild type, temperature: 37 C
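Note: PSI is a weighted mean of sequencing reads over stability bins, variants kept only with over 10 reads, mCherry proximal and sfGFP distal, peptide attached via GGGS linker.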

Sequence	protein stability index (Saccharomyces cerevisiae [1]; [3])	protein stability index (Saccharomyces cerevisiae [1]; [4])	protein stability index (Saccharomyces cerevisiae [1]; [5])	protein stability index (Saccharomyces cerevisiae [1]; [6])	protein stability index (Saccharomyces cerevisiae [1]; [7])	protein stability index (Saccharomyces cerevisiae [1]; [8])	protein stability index (Saccharomyces cerevisiae [1]; [9])	protein stability index (Saccharomyces cerevisiae [2])
AFPSSVILMVFS	0.323 ± 0.036	0.32 ± 0.034	0.29 ± 0.032	0.425 ± 0.0063	0.228 ± 0.0063	0.287 ± 0.018	0.3872 ± 0.0029	0.332 ± 0.019
AFVVYSGSHGLV	0.686 ± 0.0094	0.75 ± 0.032	0.659 ± 0.014	0.7518 ± 0.0027	0.648 ± 0.011	0.654 ± 0.014	0.7186 ± 0.003	0.57 ± 0.2
AGALAVALPCIC	0.493 ± 0.011	0.506 ± 0.018	0.399 ± 0.03	0.531 ± 0.011	0.316 ± 0.0093	0.358 ± 0.028	0.48 ± 0.011	0.5 ± 0.046
AGGGGRFWVCVG	0.656 ± 0.027	0.7348 ± 0.0059	0.6377 ± 0.0058	0.726 ± 0.02	0.215 ± 0.00078	0.258 ± 0.028	0.5539 ± 0.0019	0.364 ± 0.11
ALLVLTVSYVFS	0.045 ± 0.011	0.0772 ± 0.044	0.0924 ± 0.028	0.188 ± 0.0081	0.057 ± 0.035	0.0839 ± 0.013	0.153 ± 0.031	0.167 ± 0.022
ALVWYSLSIIVN	0.0193 ± 0.0028	0.0815 ± 0.086	0.0515 ± 0.03	0.0682 ± 0.0034	0.0397 ± 0.0011	0.0403 ± 0.021	0.0736 ± 0.04	0.205 ± 0.064
APGGRGAAGPSC	0.67 ± 0.06	0.7207 ± 0.0065	0.631 ± 0.036	0.751 ± 0.033	0.639 ± 0.021	0.655 ± 0.033	0.704 ± 0.018	0.69 ± 0.029
ARALLGVGWYWV	0.654 ± 0.015	0.7854 ± 0.0065	0.645 ± 0.018	0.761 ± 0.02	0.225 ± 0.014	0.272 ± 0.02	0.537 ± 0.0059	0.417 ± 0.024
ARCKRSLSGGIG	0.489 ± 0.034	0.579 ± 0.02	0.512 ± 0.012	0.5452 ± 0.00083	0.531 ± 0.0073	0.524 ± 0.022	0.54 ± 0.011	0.588 ± 0.14
ARSGGYLMVVLV	0.56 ± 0.033	0.599 ± 0.011	0.41 ± 0.032	0.601 ± 0.011	0.351 ± 0.0013	0.384 ± 0.023	0.562 ± 0.038	0.463 ± 0.031
ASFVCWSVCALG	0.508 ± 0.026	0.545 ± 0.006	0.4 ± 0.022	0.525 ± 0.015	0.384 ± 0.029	0.398 ± 0.019	0.5104 ± 0.0049	0.413 ± 0.025
ASGFLVIPLWVF	0.41 ± 0.0072	0.4653 ± 0.0021	0.323 ± 0.029	0.491 ± 0.022	0.17 ± 0.0047	0.19 ± 0.018	0.255 ± 0.0083	0.294 ± 0.019
ASICAFFCWFLV	0.527 ± 0.035	0.58116 ± 0.00042	0.457 ± 0.023	0.601 ± 0.024	0.326 ± 0.0088	0.321 ± 0.026	0.497 ± 0.013	0.419 ± 0.022
ASSFYVDLVLVS	0.457 ± 0.014	0.464 ± 0.024	0.341 ± 0.034	0.516 ± 0.013	0.286 ± 0.0084	0.327 ± 0.046	0.484 ± 0.0065	0.447 ± 0.0094
AYACSILRCKSS	0.624 ± 0.015	0.727 ± 0.013	0.636 ± 0.012	0.713 ± 0.026	0.186 ± 0.016	0.219 ± 0.052	0.422 ± 0.04	0.34 ± 0.086
CAGRQGRERGHT	0.694 ± 0.03	0.7217 ± 0.0042	0.658 ± 0.043	0.722 ± 0.016	0.63499 ± 0.00057	0.658 ± 0.013	0.717 ± 0.036	0.695 ± 0.011
CALFLLSSPSPT	0.713 ± 0.061	0.781 ± 0.01	0.634 ± 0.018	0.768 ± 0.012	0.659 ± 0.021	0.6451 ± 0.0031	0.7356 ± 0.0054	0.699 ± 0.011
CASIVDGFAFRF	0.752 ± 0.0086	0.782 ± 0.03	0.632 ± 0.011	0.786 ± 0.0097	0.646 ± 0.023	0.679 ± 0.046	0.7472 ± 0.0015	0.7662 ± 0.0074
CFCPILFPRCLA	0.476 ± 0.048	0.636 ± 0.016	0.579 ± 0.045	0.6659 ± 0.0023	0.142 ± 0.017	0.139 ± 0.021	0.19 ± 0.013	0.25 ± 0.072
CFGFMFLLLFDV	0.3073 ± 0.0011	0.312 ± 0.0066	0.334 ± 0.024	0.448 ± 0.013	0.467 ± 0.011	0.317 ± 0.027	0.418 ± 0.0039	0.405 ± 0.02

Sequence	protein stability index (Saccharomyces cerevisiae [1]; [3])	protein stability index (Saccharomyces cerevisiae [1]; [4])	protein stability index (Saccharomyces cerevisiae [1]; [5])	protein stability index (Saccharomyces cerevisiae [1]; [6])	protein stability index (Saccharomyces cerevisiae [1]; [7])	protein stability index (Saccharomyces cerevisiae [1]; [8])	protein stability index (Saccharomyces cerevisiae [1]; [9])	protein stability index (Saccharomyces cerevisiae [2])
CFRRPLLRVVLT	0.502 ± 0.014	0.5681 ± 0.0051	0.451 ± 0.037	0.59 ± 0.025	0.4289 ± 0.0035	0.435 ± 0.017	0.569 ± 0.0089	0.506 ± 0.018
CFSYLLIVLLFP	0.168 ± 0.019	0.2273 ± 0.00043	0.198 ± 0.024	0.334 ± 0.031	0.216 ± 0.0065	0.17 ± 0.045	0.307 ± 0.0052	0.279 ± 0.005
CFVPFFLPLCAF	0.0255 ± 0.0085	0.0285 ± 0.0074	0.0864 ± 0.03	0.109 ± 0.058	0.144 ± 0.0073	0.0733 ± 0.019	0.0588 ± 0.022	0.139 ± 0.016
CGILACSVCTFF	0.547 ± 0.071	0.6516 ± 0.0037	0.427 ± 0.027	0.6336 ± 0.0037	0.405 ± 0.016	0.436 ± 0.024	0.61 ± 0.023	0.509 ± 0.021
CGLLWFYSFFLF	0.502 ± 0.019	0.491 ± 0.013	0.391 ± 0.04	0.5187 ± 0.0046	0.375 ± 0.012	0.316 ± 0.013	0.465 ± 0.018	0.38 ± 0.021
CGLYNQFCLFLY	0.561 ± 0.04	0.626 ± 0.022	0.527 ± 0.018	0.6526 ± 0.0024	0.2274 ± 0.0022	0.217 ± 0.029	0.37 ± 0.0043	0.31 ± 0.027
CGVWVVVASAYR	0.43 ± 0.019	0.483 ± 0.03	0.302 ± 0.02	0.49431 ± 0.00019	0.2812 ± 0.0017	0.304 ± 0.019	0.508 ± 0.0093	0.377 ± 0.03
CGWVRRARVKMM	0.622 ± 0.073	0.693 ± 0.01	0.63 ± 0.026	0.709 ± 0.014	0.114 ± 0.03	0.137 ± 0.029	0.226 ± 0.0087	0.241 ± 0.015
CHFLLPFLFTCA	0.225 ± 0.027	0.28 ± 0.0099	0.244 ± 0.043	0.3685 ± 0.00097	0.1949 ± 0.0015	0.221 ± 0.024	0.309 ± 0.0071	0.332 ± 0.006
CLASCRHRTYLC	0.652 ± 0.026	0.7142 ± 0.0013	0.641 ± 0.023	0.7223 ± 0.0018	0.338 ± 0.015	0.364 ± 0.025	0.58 ± 0.016	0.483 ± 0.12
CLFRVCLFILSI	0.397 ± 0.019	0.49 ± 0.049	0.333 ± 0.038	0.489 ± 0.0053	0.3114 ± 0.00076	0.3 ± 0.028	0.467 ± 0.013	0.386 ± 0.0041
CLLGMKSRTILV	0.347 ± 0.029	0.33 ± 0.0047	0.289 ± 0.028	0.4262 ± 0.0024	0.236 ± 0.006	0.287 ± 0.03	0.397 ± 0.015	0.377 ± 0.014
CLLSRYRVFFLG	0.629 ± 0.071	0.7205 ± 0.0048	0.591 ± 0.023	0.706 ± 0.026	0.134 ± 0.014	0.184 ± 0.026	0.351 ± 0.017	0.29 ± 0.056
CLWLRCIVSILP	0.121 ± 0.0082	0.248 ± 0.0081	0.184 ± 0.028	0.321 ± 0.01	0.16 ± 0.0074	0.168 ± 0.025	0.30428 ± 0.00014	0.239 ± 0.034
CPVSFSFCLKVL	0.348 ± 0.019	0.431 ± 0.03	0.32 ± 0.026	0.468 ± 0.016	0.0628 ± 0.019	0.0823 ± 0.021	0.115 ± 0.063	0.045 ± 0.016
CRCLFVVKNWLS	0.62 ± 0.039	0.706 ± 0.012	0.623 ± 0.015	0.688 ± 0.04	0.147 ± 0.029	0.167 ± 0.013	0.293 ± 0.06	0.262 ± 0.017
CSRTRLHCFTAS	0.696 ± 0.062	0.7452 ± 0.0029	0.647 ± 0.028	0.74183 ± 0.00066	0.5808 ± 0.0019	0.585 ± 0.027	0.6796 ± 0.005	0.712 ± 0.011
CSSIFSSSDCYA	0.681 ± 0.059	0.7582 ± 0.0047	0.672 ± 0.029	0.7219 ± 0.0061	0.68 ± 0.01	0.68 ± 0.018	0.731 ± 0.011	0.7457 ± 0.0014
CVFCRVAVGVDG	0.5389 ± 0.0011	0.5838 ± 0.0043	0.438 ± 0.03	0.616 ± 0.0086	0.428 ± 0.028	0.439 ± 0.0076	0.5899 ± 0.0034	0.516 ± 0.026
